Results on three molecules are retold here after article PMC6158740 (Nucleic Acids Research, 2018).

The target of data set [1] is ComM (Vibrio cholerae, UniProt Q9KVV6). Conditions: AMP-PNP, nonhydrolyzable analogue; pH 7.5, 37 °C.
Data set [2] addresses T1, ComM (Vibrio cholerae, UniProt Q9KVV6 1-507).
T1 sequence: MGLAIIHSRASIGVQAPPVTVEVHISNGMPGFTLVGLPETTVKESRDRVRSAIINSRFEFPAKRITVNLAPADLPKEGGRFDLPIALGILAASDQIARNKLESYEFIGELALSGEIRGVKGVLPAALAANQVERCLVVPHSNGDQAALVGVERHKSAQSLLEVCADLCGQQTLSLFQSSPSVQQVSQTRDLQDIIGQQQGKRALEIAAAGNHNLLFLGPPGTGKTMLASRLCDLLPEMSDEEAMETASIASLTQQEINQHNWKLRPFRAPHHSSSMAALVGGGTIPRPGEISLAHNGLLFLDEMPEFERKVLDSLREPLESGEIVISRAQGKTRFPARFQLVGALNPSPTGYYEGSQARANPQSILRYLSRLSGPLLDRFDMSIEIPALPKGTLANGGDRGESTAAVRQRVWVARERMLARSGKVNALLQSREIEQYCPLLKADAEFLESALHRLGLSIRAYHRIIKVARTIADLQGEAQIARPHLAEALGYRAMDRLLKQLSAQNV
Nature of the data set: EMSA. Background: A gel shift assay detects complexes by their altered migration in electrophoresis.

`Nc1ncnc2c1ncn2[C@@H]1O[C@H](COP(=O)(O)OP(=O)(O)NP(=O)(O)O)[C@@H](O)[C@H]1O` [AMP-PNP]: the “three-strand branch migration assay, gel; oligomerization assay” value on ComM [1] is listed as “This activity was inhibited when ComM was incubated with AMP-PNP”.

As for ATTCCGGGGATCCGTCGACCTGCAGTTCAGAAGCAGCTCCAGCCTACA (ssDNA) [BBC742 ssDNA probe], the binding result with ComM [2] was “binds”.

B1: BBC742/BBC743 dsDNA probe (dsDNA)
DNA 1: ATTCCGGGGATCCGTCGACCTGCAGTTCAGAAGCAGCTCCAGCCTACA
DNA 2: TGTAGGCTGGAGCTGCTTCTGAACTGCAGGTCGACGGATCCCCGGAAT
Consider B1, for which the binding result with ComM [2] is “binds”.
